B1: BCL6^241-260 peptide (peptide)
peptide: EYSRPTLEVSPNVCHSNIYS
notes: also called V×P-containing polypeptide
B2: biotinylated Strep II Avi-tagged SIAH1^SBD (enzyme, human, UniProt Q8IUQ4 90-282, looked up)
chain: VANSVLFPCKYASSGCEITLPHTEKADHEELCEFRPYSCPCPGASCKWQGSLDAVMPHLMHQHKSITTLQGEDIVFLATDINLPGAVDWVMMQSCFGFHFMLVLEKQEKYDGHQQFFAIVQLIGTRKQAENFAYRLELNGHRRRLTWEATPRSIHEGIATAIMNSDCLVFDTSIAQLFAENGNLGINVTISMC
modifications: biotinylated (Avi tag)
notes: range 90-282; Captured through terbium-coupled streptavidin in TR-FRET; also called BiotinSIAH1^SBD; not shown: N-terminal Strep II-Avi tag
B3: SIAH1^SBD (tag-cleaved) (enzyme, human, UniProt Q8IUQ4 90-282, looked up)
chain: B2 chain
notes: range 90-282; also called recombinant SIAH1^SBD
B4: V5SIAH1^C44S (enzyme, UniProt Q8IUQ4 1-282, looked up)
chain: MSRQTATALPTGTSKCPPSQRVPALTGTTASNNDLASLFECPVSFDYVLPPILQCQSGHLVCSNCRPKLTCCPTCRGPLGSIRNLAMEKVANSVLFPCKYASSGCEITLPHTEKADHEELCEFRPYSCPCPGASCKWQGSLDAVMPHLMHQHKSITTLQGEDIVFLATDINLPGAVDWVMMQSCFGFHFMLVLEKQEKYDGHQQFFAIVQLIGTRKQAENFAYRLELNGHRRRLTWEATPRSIHEGIATAIMNSDCLVFDTSIAQLFAENGNLGINVTISMC
notes: Expressed from pLEX_307 in HEK293T Cas9 cells; also called V5SIAH1^44C>S; V5SIAH1^44>S; not shown: V5 tag

Tests used:
SIAH1^SBD (tag-cleaved) = biological target: B3; assay: isothermal titration calorimetry, peptide injected into SIAH1^SBD
Procedure: (§1) All calorimetric experiments were carried out using an Affinity ITC from TA Instruments (New Castle, Del.) equipped with auto sampler in a buffer containing 20 mM HEPES, pH 7.5, 150 mM NaCl, and 0.5 mM TCEP at 25° C. For the BCL6-SIAH1 interaction, 25 μM BCL6⁵⁻³⁶⁰ protein solution in the calorimetric cell was titrated by injecting 2 μL of 250 μM SIAH1^SBD protein solution in 200 sec intervals with stirring speed at 125 rpm. […] Resulting isotherm was fitted with a single site model to yield thermodynamic parameters of DH, DS, stoichiometry, and Kd using NanoAnalyze software (TA instruments).

[1] = biological target: T1, BodipyFL-labeled BCL6^5-360 (human, UniProt P41182 5-360, BodipyFL label (site not stated)); assay: TR-FRET, apparent KD; BodipyFL-BCL6^5-360 titrated to biotinylated SIAH1^SBD in the presence of 2 µM BI-3802
T1 construct: also called BodipyBCL6^5-360; BodipyFL-BCL6^5-360
Procedure: Titrations of BodipyFL-BCL6⁵⁻³⁶⁰ were carried out by mixing 400 nM biotinylated Strep II Avi-tagged SIAH1^SBD, 2 μM compounds or equivalent volume of DMSO, and 4 nM terbium-coupled streptavidin in the same assay buffer. After dispensing the assay mixture, increasing concentration of BodipyFL-BCL6⁵⁻³⁶⁰ was added to the SIAH1 mixture in a […] (7.5 μL each, total 15 μL assay volume). The 520/490 nm ratios were measured in as described above and plotted to calculate the KD^APP values using dose-response analysis standard four parameter log-logistic curves using the dr4pl R package.

BCL6^5-360 (ITC) = biological target: T2, BCL6^5-360 (ITC) (human, UniProt P41182 5-360); assay: isothermal titration calorimetry, SIAH1^SBD injected into BCL6^5-360
T2 construct: also called BCL6^5-360 protein
Procedure: as §1

eGFPBCL6^1-250 = biological target: T3, eGFPBCL6^1-250 (human, UniProt P41182 1-250); assay: co-immunoprecipitation (GFP-trap) from HEK293T cells, BI-3802 or DMSO
T3 construct: Expressed in HEK293T Cas9 cells; also called eGFPBCL6^250; non-degradable eGFPBCL6^1-250 construct; not shown: eGFP
Procedure: (§2) The cells were harvested and lysed in RIPA lysis buffer (ThermoFisher Scientific, #89900) infused with protease inhibitor (ThermoFisher Scientific, Halt™ Protease Inhibitor Cocktail #78438) for 30 min at 4° C. […] Lysates were cleared by centrifugation (17,000 g, 20 min, 4° C.). 20 μL of pre-cleaned GFP-trap magnetic agarose beads (Chromotek, gmta-20) was added to the lysates. The beads-lysate mix was incubated at 4° C. for 30 min. Proteins were eluted in 2×sample buffer at 98° C. Eluates and whole-cell lysates were run on a polyacrylamide gel, transferred to a nitrocellulose membrane and immunoblotted for eGFP and V5.

[2] = biological target: T4, eGFPBCL6^FL 249-251 VSP>GSA (human, UniProt P41182 1-706); assay: as above
T4 construct: Expressed in HEK293T Cas9 cells; also called BCL6 V×P motif mutant; not shown: eGFP
Procedure: as §2

eGFPBCL6^1-275 = biological target: T5, eGFPBCL6^1-275 (human, UniProt P41182 1-275); assay: immunofluorescence colocalization in HEK293T cells, 1 µM BI-3802
T5 construct: Expressed in HEK293T Cas9 cells; also called eGFPBCL6^275; minimal degradable construct; not shown: eGFP

Binder: B1
binding result (SIAH1^SBD (tag-cleaved)): binds

Binder: B2
Kd [1]: 200 nM

Binder: B3
binding result (BCL6^5-360 (ITC)): binds

Binder: B4
binding result (eGFPBCL6^1-250): no binding | binding result [2]: no binding | binding result (eGFPBCL6^1-275): binds

From US20220281931A1 (published 2022)
